Experimental findings from patent US20130202609 are described below.

The data set deals with interleukin-8 (IL-8; CXCL8).

B1: wild-type GAS57 (Spy0416), recombinant, purified from E. coli (protein)
chain 1: ADELSTMSEPTITNHAQQQAQHLTNTELSSAESKSQDTSQITLKTNREKEQSQDLVSEPTTTELADTDAASMANTGSDATQKSASLPPVNTDVHDWVKTKGAWDKGYKGQGKVVAVIDTGIDPAHQSMRISDVSTAKVKSKEDMLARQKAAGINYGSWINDKVVFAHNYVENSDNIKENQFEDFDEDWENFEFDAEAEPKAIKKHKIYRPQ
chain 2: STQAPKETVIKTEETDGSHDIDWTQTDDDTKYESHGMHVTGIVAGNSKEAAATGERFLGIAPEAQVMFMRVFANDIMGSAESLFIKAIEDAVALGADVINLSLGTANGAQLSGSKPLMEAIEKAKKAGVSVVVAAGNERVYGSDHDDPLATNPDYGLVGSPSTGRTPTSVAAINSKWVIQRLMTVKELENRADLNHGKAIYSESVDFKDIKDSLGYDKSHQFAYVKESTDAGYNAQDVKGKIALIERDPNKTYDEMIALAKKHGALGVLIFNNKPGQSNRSMRLTANGMGIPSAFISHEFGKAMSQLNGNGTGSLEFDSVVSKAPSQKGNEMNHFSNWGLTSDGYLKPDITAPGGDIYSTYNDNHYGSQTGTSMASPQIAGASLLVKQYLEKTQPNLPKEKIADIVKNLLMSNAQIHVNPETKTTTSPRQQGAGLLNIDGAVTSGLYVTGKDNYGSISLGNITDTMTFDVTVHNLSNKDKTLRYDTELLTDHVDPQKGRFTLTSHSLKTYQGGEVTVPANGKVTVRVTMDVSQFTKELTKQMPNGYYLEGFVRFRDSQDDQLNRVNIPFVGFKGQFENLAVAEESIYRLKSQGKTGFYFDESGPKDDIYVGKHFTGLVTLGSETNVSTKTISDNGLHTLGTFKNADGKFILEKNAQGNPVLAISPNGDNNQDFAAFKGVFLRKYQGLKASVYHASDKEHKNPLWVSPESFKGDKNFNSDIRFAKSTTLLGTAFSGKSLTGAELPDGHYHYVVSYYPDVVGAKRQEMTFDMILDRQKPVLSQATFDPETNRFKPEPLKDRGLAGVRKDSVFYLERKDNKPYTVTINDSYKYVSVEDNKTFVERQADGSFILPLDKAKLGDFYYMVEDFAGNVAIAKLGDHLPQTLGKTPIKLKLTDGNYQTKETLKDNLEMTQSDTGLVTNQAQLAVVHRNQPQSQLTKMNQDFFISPNEDGNKDFVAFKGLKNNVYNDLTVNVYAKDDHQKQTPIWSSQAGASVSAIESTAWYGITARGSKVMPGDYQYVVTYRDEHGKEHQKQYTISVNDKKPMITQGRFDTINGVDHFTPDKTKALDSSGIVREEVFYLAKKNGRKFDVTEGKDGITVSDNKVYIPKNPDGSYTISKRDGVTLSDYYYLVEDRAGNVSFATLRDLKAVGKDKAVVNFGLDLPVPEDKQIVNFTYLVRDADGKPIENLEYYNNSGNSLILPYGKYTVELLTYDTNAAKLESDKIVSFTLSADNNFQQVTFKITMLATSQITAHFDHLLPEGSRVSLKTAQDQLIPLEQSLYVPKAYGKTVQEGTYEVVVSLPKGYRIEGNTKVNTLPNEVHELSLRLVKVGDASDSTGDHKVMSKNNSQALTASATPT
On to B1, for which the “IL-8 cleavage, SDS-PAGE with silver staining” value was “Wild-type GAS57 (lanes 2 and 3) released two bands: 8 kDa (active form) and 6 kDa (inactive cleaved IL-8)”; the “percentage of uncleaved IL-8, ELISA” value is “wild-type GAS57 almost completely inactivated IL-8 after 8 hours, even at the lower concentration”.

B2: GAS57 mutant D151A, His-tagged (protein)
chain: ADELSTMSEPTITNHAQQQAQHLTNTELSSAESKSQDTSQITLKTNREKEQSQDLVSEPTTTELADTDAASMANTGSDATQKSASLPPVNTDVHDWVKTKGAWDKGYKGQGKVVAVIATGIDPAHQSMRISDVSTAKVKSKEDMLARQKAAGINYGSWINDKVVFAHNYVENSDNIKENQFEDFDEDWENFEFDAEAEPKAIKKHKIYRPQSTQAPKETVIKTEETDGSHDIDWTQTDDDTKYESHGMHVTGIVAGNSKEAAATGERFLGIAPEAQVMFMRVFANDIMGSAESLFIKAIEDAVALGADVINLSLGTANGAQLSGSKPLMEAIEKAKKAGVSVVVAAGNERVYGSDHDDPLATNPDYGLVGSPSTGRTPTSVAAINSKWVIQRLMTVKELENRADLNHGKAIYSESVDFKDIKDSLGYDKSHQFAYVKESTDAGYNAQDVKGKIALIERDPNKTYDEMIALAKKHGALGVLIFNNKPGQSNRSMRLTANGMGIPSAFISHEFGKAMSQLNGNGTGSLEFDSVVSKAPSQKGNEMNHFSNWGLTSDGYLKPDITAPGGDIYSTYNDNHYGSQTGTSMASPQIAGASLLVKQYLEKTQPNLPKEKIADIVKNLLMSNAQIHVNPETKTTTSPRQQGAGLLNIDGAVTSGLYVTGKDNYGSISLGNITDTMTFDVTVHNLSNKDKTLRYDTELLTDHVDPQKGRFTLTSHSLKTYQGGEVTVPANGKVTVRVTMDVSQFTKELTKQMPNGYYLEGFVRFRDSQDDQLNRVNIPFVGFKGQFENLAVAEESIYRLKSQGKTGFYFDESGPKDDIYVGKHFTGLVTLGSETNVSTKTISDNGLHTLGTFKNADGKFILEKNAQGNPVLAISPNGDNNQDFAAFKGVFLRKYQGLKASVYHASDKEHKNPLWVSPESFKGDKNFNSDIRFAKSTTLLGTAFSGKSLTGAELPDGHYHYVVSYYPDVVGAKRQEMTFDMILDRQKPVLSQATFDPETNRFKPEPLKDRGLAGVRKDSVFYLERKDNKPYTVTINDSYKYVSVEDNKTFVERQADGSFILPLDKAKLGDFYYMVEDFAGNVAIAKLGDHLPQTLGKTPIKLKLTDGNYQTKETLKDNLEMTQSDTGLVTNQAQLAVVHRNQPQSQLTKMNQDFFISPNEDGNKDFVAFKGLKNNVYNDLTVNVYAKDDHQKQTPIWSSQAGASVSAIESTAWYGITARGSKVMPGDYQYVVTYRDEHGKEHQKQYTISVNDKKPMITQGRFDTINGVDHFTPDKTKALDSSGIVREEVFYLAKKNGRKFDVTEGKDGITVSDNKVYIPKNPDGSYTISKRDGVTLSDYYYLVEDRAGNVSFATLRDLKAVGKDKAVVNFGLDLPVPEDKQIVNFTYLVRDADGKPIENLEYYNNSGNSLILPYGKYTVELLTYDTNAAKLESDKIVSFTLSADNNFQQVTFKITMLATSQITAHFDHLLPEGSRVSLKTAQDQLIPLEQSLYVPKAYGKTVQEGTYEVVVSLPKGYRIEGNTKVNTLPNEVHELSLRLVKVGDASDSTGDHKVMSKNNSQALTASATPT
Regarding B2, the “IL-8 cleavage, SDS-PAGE with silver staining” value was “the GAS57 D151A mutant released only one band, which corresponded to uncleaved IL-8, as in the control reaction (without enzyme)”; the “percentage of uncleaved IL-8, ELISA” value was “no inactivation was observed for IL-8 treated with the mutant enzyme”; the “uncleaved IL-8 after 24 h incubation, ELISA” value was “the mutants release 100% of uncleaved IL-8 after 24 h incubation”.

B3: GAS57 mutant S617A, His-tagged (protein)
chain: ADELSTMSEPTITNHAQQQAQHLTNTELSSAESKSQDTSQITLKTNREKEQSQDLVSEPTTTELADTDAASMANTGSDATQKSASLPPVNTDVHDWVKTKGAWDKGYKGQGKVVAVIDTGIDPAHQSMRISDVSTAKVKSKEDMLARQKAAGINYGSWINDKVVFAHNYVENSDNIKENQFEDFDEDWENFEFDAEAEPKAIKKHKIYRPQSTQAPKETVIKTEETDGSHDIDWTQTDDDTKYESHGMHVTGIVAGNSKEAAATGERFLGIAPEAQVMFMRVFANDIMGSAESLFIKAIEDAVALGADVINLSLGTANGAQLSGSKPLMEAIEKAKKAGVSVVVAAGNERVYGSDHDDPLATNPDYGLVGSPSTGRTPTSVAAINSKWVIQRLMTVKELENRADLNHGKAIYSESVDFKDIKDSLGYDKSHQFAYVKESTDAGYNAQDVKGKIALIERDPNKTYDEMIALAKKHGALGVLIFNNKPGQSNRSMRLTANGMGIPSAFISHEFGKAMSQLNGNGTGSLEFDSVVSKAPSQKGNEMNHFSNWGLTSDGYLKPDITAPGGDIYSTYNDNHYGSQTGTAMASPQIAGASLLVKQYLEKTQPNLPKEKIADIVKNLLMSNAQIHVNPETKTTTSPRQQGAGLLNIDGAVTSGLYVTGKDNYGSISLGNITDTMTFDVTVHNLSNKDKTLRYDTELLTDHVDPQKGRFTLTSHSLKTYQGGEVTVPANGKVTVRVTMDVSQFTKELTKQMPNGYYLEGFVRFRDSQDDQLNRVNIPFVGFKGQFENLAVAEESIYRLKSQGKTGFYFDESGPKDDIYVGKHFTGLVTLGSETNVSTKTISDNGLHTLGTFKNADGKFILEKNAQGNPVLAISPNGDNNQDFAAFKGVFLRKYQGLKASVYHASDKEHKNPLWVSPESFKGDKNFNSDIRFAKSTTLLGTAFSGKSLTGAELPDGHYHYVVSYYPDVVGAKRQEMTFDMILDRQKPVLSQATFDPETNRFKPEPLKDRGLAGVRKDSVFYLERKDNKPYTVTINDSYKYVSVEDNKTFVERQADGSFILPLDKAKLGDFYYMVEDFAGNVAIAKLGDHLPQTLGKTPIKLKLTDGNYQTKETLKDNLEMTQSDTGLVTNQAQLAVVHRNQPQSQLTKMNQDFFISPNEDGNKDFVAFKGLKNNVYNDLTVNVYAKDDHQKQTPIWSSQAGASVSAIESTAWYGITARGSKVMPGDYQYVVTYRDEHGKEHQKQYTISVNDKKPMITQGRFDTINGVDHFTPDKTKALDSSGIVREEVFYLAKKNGRKFDVTEGKDGITVSDNKVYIPKNPDGSYTISKRDGVTLSDYYYLVEDRAGNVSFATLRDLKAVGKDKAVVNFGLDLPVPEDKQIVNFTYLVRDADGKPIENLEYYNNSGNSLILPYGKYTVELLTYDTNAAKLESDKIVSFTLSADNNFQQVTFKITMLATSQITAHFDHLLPEGSRVSLKTAQDQLIPLEQSLYVPKAYGKTVQEGTYEVVVSLPKGYRIEGNTKVNTLPNEVHELSLRLVKVGDASDSTGDHKVMSKNNSQALTASATPT
For the protein B3, the “IL-8 cleavage, SDS-PAGE with silver staining, 24 hours” value is “unable to cleave IL-8, even at a 100-fold higher concentration than wild-type GAS57” and the “uncleaved IL-8 after 24 h incubation, ELISA” value is “the mutants release 100% of uncleaved IL-8 after 24 h incubation”.
